Measured values: PMC10221975 (Pharmaceutics, 2023)

Biological target: the molecule itself
Experiment: dynamic light scattering; after irradiation of the N2O-saturated solution with 0.1 M NaN3 (oxidation by N3 radicals), 70 μM protein, 25 °C; the species seen are held by covalent bonds (dityrosine)

B1: papain (enzyme, UniProt P00784 134-345, looked up)
chain: IPEYVDWRQKGAVTPVKNQGSCGSCWAFSAVVTIEGIIKIRTGNLNEYSEQELLDCDRRSYGCNGGYPWSALQLVAQYGIHYRNTYPYEGVQRYCRSREKGPYAAKTDGVRQVQPYNEGALLYSIANQPVSVVLEAAGKDFQLYRGGIFVGPCGNKVDHAVAAVGYGPNYILIKNSWGTGWGENGYIRIKRGTGNSYGVCGLYTSSFYPVKN
notes: papain; source: bought: Roth (8933.1), used as received
- stoichiometry N: 2
